Laboratory results published in article PMC9091222 (2022).

Target: unprocessed hMPV PreF trimer (wild-type hMPV F ectodomain trimer, strain B2, C-terminal GCN4 trimerization … (human metapneumovirus, strain B2))
Assay: ELISA

B1: M4B06 IgG (antibody, V domains shown)
VH: EVQLLESGGGFVQPGGSLRLSCVVTGFTFSNYAMCWVRQAPGKGPEWVSGIGGSVGTTYYADSVKGRFTISRDNSKNTLYLQMSGLRAEDTARYYCAKVPSFFVFEDGFDMWGQGTVVTVSS
VL: QSVLTQPPSASGNPGQRVTISCYGSGSNIGNNYVHWFRQLPGTAPRLLIYNTDILVPGVPDRFSGSESGTSASLAISGLQSGDEADYFCAAWDDTLNGYVFGPGTTVTVL
EC50: 4.4 ng/mL
